Consider six molecules from publication PMC8151509.

Experiment [1] deals with C1qCLR_nc2 (wild type, devoid of the additional GPP triplets), P02745;P02747. Description: SPR. The following applies: chain shown with the change; immobilized C1qCLR_nc2; parent: est. 100; read off a plot.
The target of experiment [2] is C1qstem_nc2, P02745;P02746. Description: SPR. The following applies: chain shown with the change; immobilized C1qstem_nc2; parent: est. 100; read off a plot.
For experiment [3], the target named is C1qCLR_nc2 (wild type, devoid of the additional GPP triplets) (UniProt P02745). Nature of the experiment: SPR; LAIR-1 Ig-like domain injected at increasing concentrations (4-128, 4-256 or 3.125-400 µM) over immobilized C1q, rC1q variants, C1qCLR_nc2 variants or C1qstem_nc2 (CM5, amine coupling); 25 °C; 50 mM Tris, 150 mM NaCl, 2 mM CaCl2, 0.05% surfactant P20, pH 7.5; KD from Req versus concentration, steady-state model. (In SPR one partner is held on a chip, and binding of the other changes the refractive index at the surface.)

Experiment [4] deals with C1qCLR_nc2 A_R72E (UniProt P02745). Described as above.
The target in experiment [5] is C1qCLR_nc2 B_K65E (UniProt P02745). Described as above.
In experiment [6] the target is C1qstem_nc2 (UniProt P02745). The experiment is described as above.

Where a chain is given by its changes, count along the chain named. Numbers in names are those of the source.

Chain of C1qCLR_nc2 (wild type, devoid of the additional GPP triplets), P02745;P02747 (chain, as listed by the source, chain 1 of 3): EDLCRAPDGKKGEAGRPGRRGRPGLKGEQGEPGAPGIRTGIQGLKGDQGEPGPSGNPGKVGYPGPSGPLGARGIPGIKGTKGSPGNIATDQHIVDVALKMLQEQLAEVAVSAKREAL
Chain of C1qCLR_nc2 (wild type, devoid of the additional GPP triplets), P02745;P02747 (chain, as listed by the source, chain 2 of 3): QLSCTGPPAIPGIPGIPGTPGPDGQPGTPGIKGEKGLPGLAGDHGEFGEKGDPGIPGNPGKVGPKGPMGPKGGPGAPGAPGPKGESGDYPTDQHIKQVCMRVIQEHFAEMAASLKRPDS
Chain of C1qCLR_nc2 (wild type, devoid of the additional GPP triplets), P02745;P02747 (chain, as listed by the source, chain 3 of 3): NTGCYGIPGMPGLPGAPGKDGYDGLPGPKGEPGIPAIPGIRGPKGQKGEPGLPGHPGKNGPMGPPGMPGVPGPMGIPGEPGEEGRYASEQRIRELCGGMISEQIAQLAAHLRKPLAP
Chain of C1qstem_nc2, P02745;P02746 (chain, as listed by the source, chain 1 of 3): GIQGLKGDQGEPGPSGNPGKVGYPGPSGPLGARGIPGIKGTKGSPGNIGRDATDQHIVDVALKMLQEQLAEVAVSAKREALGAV
Chain of C1qstem_nc2, P02745;P02746 (chain, as listed by the source, chain 2 of 3): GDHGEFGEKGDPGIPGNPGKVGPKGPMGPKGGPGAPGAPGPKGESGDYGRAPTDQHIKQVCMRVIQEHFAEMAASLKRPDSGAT
Chain of C1qstem_nc2, P02745;P02746 (chain, as listed by the source, chain 3 of 3): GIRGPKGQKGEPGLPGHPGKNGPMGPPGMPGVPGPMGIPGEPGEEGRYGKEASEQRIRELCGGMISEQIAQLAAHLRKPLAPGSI

B1: LAIR-1 Ig-like domain, wild type, Q6GTX8 P107R (protein)
chain: QEEDLPRPSISAEPGTVIPLGSHVTFVCRGPVGVQTFRLERDSRSTYNDTEDVSQASPSESEARFRIDSVREGNAGLYRCIYYKPRKWSEQSDYLELLVKE
For the molecule B1, the percent of parent (% of LAIR-1 WT binding) in experiment [1] was determined as 60; in experiment [2], 69.

B2: LAIR-1 Ig-like domain, wild type (domain or fragment)
chain: B1 chain with R86P
With B2, the Kd in experiment [3] amounted to 179 µM; in experiment [4], 295 µM; in experiment [5], 189 µM; in experiment [6] it was 175 µM.

B3: LAIR-1 Ig-like domain, wild type, Q6GTX8 E111K (protein)
chain: B1 chain with R86P, E90K
As to B3, the percent of parent (% of LAIR-1 WT binding) came to 36 in experiment [1] and 34 in experiment [2].

B4: LAIR-1 Ig-like domain, wild type, Q6GTX8 E61A (protein)
chain: B1 chain with E40A, R86P
As for B4, the percent of parent (% of LAIR-1 WT binding) in experiment [1] amounted to 11; in experiment [2], 6.

B5: LAIR-1 Ig-like domain, wild type, Q6GTX8 E72K (protein)
chain: B1 chain with E51K, R86P
B5: the percent of parent (% of LAIR-1 WT binding) in experiment [1] and in experiment [2] was 21 each time.

B6: LAIR-1 Ig-like domain, wild type, Q6GTX8 I102L (protein)
chain: B1 chain with I81L, R86P
Consider B6, for which the percent of parent (% of LAIR-1 WT binding) was 21 in experiment [1] and 20 in experiment [2].

Broadly, the Kd is the free concentration of one partner at which half of the binding sites on the other are occupied at equilibrium, for simple one-to-one binding.
